Reference: PMC5397160, “Insights into the RecQ helicase mechanism revealed by the structure of the helicase domain of human RECQL5”

Columns and labels:
[1] = molecular target: RECQL5 11-526 W165A (human, UniProt O94762 11-526, W165A); assay: fluorescence polarization; FP: 10 mM HEPES pH 7.5, 150 mM NaCl, 25 C, 10 nM FITC probe; no nucleotide or Mg stated; details: protein: recombinant; tags: none (His tag cleaved with TEV); label: 5' fluorescein (FITC) on RQ-1; fork 1:2, 31 bp, RQ-1 5' arm 32 nt, RQ-3 3' arm 30 nt
[2] = molecular target: RECQL5 11-526 R352G (human, UniProt O94762 11-526, R352G); assay: as above; details: protein: recombinant; tags: none (His tag cleaved with TEV); label: 5' fluorescein (FITC) on RQ-1; fork 1:2, 31 bp, RQ-1 5' arm 32 nt, RQ-3 3' arm 30 nt
[3] = molecular target: RECQL5 11-526 (human, UniProt O94762 11-526); assay: as above; details: protein: recombinant; tags: none (His tag cleaved with TEV); label: 5' fluorescein (FITC) on RQ-1; fork 1:2, 31 bp, RQ-1 5' arm 32 nt, RQ-3 3' arm 30 nt
[4] = molecular target: RECQL5 11-526 Y419A (human, UniProt O94762 11-526, Y419A); assay: as above; details: protein: recombinant; tags: none (His tag cleaved with TEV); label: 5' fluorescein (FITC) on RQ-1; fork 1:2, 31 bp, RQ-1 5' arm 32 nt, RQ-3 3' arm 30 nt
[5] = molecular target: RECQL5 11-526 H167A (human, UniProt O94762 11-526, H167A); assay: as above; details: protein: recombinant; tags: none (His tag cleaved with TEV); label: 5' fluorescein (FITC) on RQ-1; fork 1:2, 31 bp, RQ-1 5' arm 32 nt, RQ-3 3' arm 30 nt
[6] = molecular target: RECQL5 11-526 D422A (human, UniProt O94762 11-526, D422A); assay: as above; details: protein: recombinant; tags: none (His tag cleaved with TEV); label: 5' fluorescein (FITC) on RQ-1; fork 1:2, 31 bp, RQ-1 5' arm 32 nt, RQ-3 3' arm 30 nt
[7] = molecular target: RECQL5 11-526 Q345A (human, UniProt O94762 11-526, Q345A); assay: as above; details: protein: recombinant; tags: none (His tag cleaved with TEV); label: 5' fluorescein (FITC) on RQ-1; fork 1:2, 31 bp, RQ-1 5' arm 32 nt, RQ-3 3' arm 30 nt
[8] = molecular target: RECQL5 11-453 (human, UniProt O94762 11-453); assay: as above; details: protein: recombinant; tags: none (His tag cleaved with TEV); label: 5' fluorescein (FITC) on RQ-1; fork 1:2, 31 bp, RQ-1 5' arm 32 nt, RQ-3 3' arm 30 nt
[9] = molecular target: RECQL5 11-526 F420A (human, UniProt O94762 11-526, F420A); assay: as above; details: protein: recombinant; tags: none (His tag cleaved with TEV); label: 5' fluorescein (FITC) on RQ-1; fork 1:2, 31 bp, RQ-1 5' arm 32 nt, RQ-3 3' arm 30 nt
[10] = molecular target: RECQL5 11-526 D168A (human, UniProt O94762 11-526, D168A); assay: as above; details: protein: recombinant; tags: none (His tag cleaved with TEV); label: 5' fluorescein (FITC) on RQ-1; fork 1:2, 31 bp, RQ-1 5' arm 32 nt, RQ-3 3' arm 30 nt
[11] = molecular target: RECQL5 11-609 (human, UniProt O94762 11-609); assay: as above; details: protein: recombinant, tags: none (His tag cleaved with TEV)
[12] = molecular target: RECQL5 11-526 R349A (human, UniProt O94762 11-526, R349A); assay: fluorescence polarization; value marked * in table; FP: 10 mM HEPES pH 7.5, 150 mM NaCl, 25 C, 10 nM FITC probe; no nucleotide or Mg stated; details: protein: recombinant; tags: none (His tag cleaved with TEV); label: 5' fluorescein (FITC) on RQ-1; fork 1:2, 31 bp, RQ-1 5' arm 32 nt, RQ-3 3' arm 30 nt
[13] = molecular target: RECQL5 11-438 (human, UniProt O94762 11-438); assay: fluorescence polarization; shared Bmax fit; FP: 10 mM HEPES pH 7.5, 150 mM NaCl, 25 C, 10 nM FITC probe; no nucleotide or Mg stated; details: protein: recombinant; tags: none (His tag cleaved with TEV); label: 5' fluorescein (FITC) on RQ-1; fork 1:2, 31 bp, RQ-1 5' arm 32 nt, RQ-3 3' arm 30 nt
RECQL5 11-438, sequence (O94762 11-438): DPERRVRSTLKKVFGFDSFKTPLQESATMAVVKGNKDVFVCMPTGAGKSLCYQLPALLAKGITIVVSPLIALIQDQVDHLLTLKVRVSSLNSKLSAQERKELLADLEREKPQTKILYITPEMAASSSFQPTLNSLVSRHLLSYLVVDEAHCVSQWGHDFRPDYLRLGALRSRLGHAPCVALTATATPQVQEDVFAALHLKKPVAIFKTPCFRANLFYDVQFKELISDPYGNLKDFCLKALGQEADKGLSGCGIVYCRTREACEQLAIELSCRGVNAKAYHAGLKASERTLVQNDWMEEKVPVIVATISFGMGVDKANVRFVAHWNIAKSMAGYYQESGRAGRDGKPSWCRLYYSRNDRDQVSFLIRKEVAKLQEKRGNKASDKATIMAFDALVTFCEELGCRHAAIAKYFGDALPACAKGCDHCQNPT

RECQL5 11-609, sequence (O94762 11-609): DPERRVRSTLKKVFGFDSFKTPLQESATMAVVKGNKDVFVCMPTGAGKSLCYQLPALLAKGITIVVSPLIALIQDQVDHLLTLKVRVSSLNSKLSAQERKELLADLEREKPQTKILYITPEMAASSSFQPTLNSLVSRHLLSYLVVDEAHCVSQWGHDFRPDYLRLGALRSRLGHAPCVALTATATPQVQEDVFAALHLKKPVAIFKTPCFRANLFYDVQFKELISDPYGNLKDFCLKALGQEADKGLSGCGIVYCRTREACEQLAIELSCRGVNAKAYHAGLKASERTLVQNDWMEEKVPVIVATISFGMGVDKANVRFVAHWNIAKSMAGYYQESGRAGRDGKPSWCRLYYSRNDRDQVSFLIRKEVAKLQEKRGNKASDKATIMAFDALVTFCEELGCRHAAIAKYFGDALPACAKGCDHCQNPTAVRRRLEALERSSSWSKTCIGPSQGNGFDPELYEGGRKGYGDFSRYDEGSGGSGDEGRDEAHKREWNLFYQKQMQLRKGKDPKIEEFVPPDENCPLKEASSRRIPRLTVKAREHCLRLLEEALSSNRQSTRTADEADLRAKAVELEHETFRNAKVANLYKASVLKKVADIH
RECQL5 11-526 W165A, sequence (O94762 11-526 W165A): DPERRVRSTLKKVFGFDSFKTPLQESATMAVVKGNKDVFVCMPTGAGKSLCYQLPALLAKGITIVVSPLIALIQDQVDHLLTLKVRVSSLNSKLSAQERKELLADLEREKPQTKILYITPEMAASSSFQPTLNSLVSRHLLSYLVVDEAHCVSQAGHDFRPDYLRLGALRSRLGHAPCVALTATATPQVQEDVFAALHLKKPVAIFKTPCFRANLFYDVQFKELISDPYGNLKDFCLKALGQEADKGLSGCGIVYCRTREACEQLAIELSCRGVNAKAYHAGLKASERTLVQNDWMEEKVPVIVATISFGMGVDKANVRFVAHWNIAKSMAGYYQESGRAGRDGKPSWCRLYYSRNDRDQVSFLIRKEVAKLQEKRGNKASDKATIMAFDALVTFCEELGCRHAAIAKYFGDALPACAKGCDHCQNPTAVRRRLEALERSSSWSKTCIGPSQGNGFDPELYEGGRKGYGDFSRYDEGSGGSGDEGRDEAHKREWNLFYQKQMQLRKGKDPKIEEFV
RECQL5 11-453, sequence (O94762 11-453): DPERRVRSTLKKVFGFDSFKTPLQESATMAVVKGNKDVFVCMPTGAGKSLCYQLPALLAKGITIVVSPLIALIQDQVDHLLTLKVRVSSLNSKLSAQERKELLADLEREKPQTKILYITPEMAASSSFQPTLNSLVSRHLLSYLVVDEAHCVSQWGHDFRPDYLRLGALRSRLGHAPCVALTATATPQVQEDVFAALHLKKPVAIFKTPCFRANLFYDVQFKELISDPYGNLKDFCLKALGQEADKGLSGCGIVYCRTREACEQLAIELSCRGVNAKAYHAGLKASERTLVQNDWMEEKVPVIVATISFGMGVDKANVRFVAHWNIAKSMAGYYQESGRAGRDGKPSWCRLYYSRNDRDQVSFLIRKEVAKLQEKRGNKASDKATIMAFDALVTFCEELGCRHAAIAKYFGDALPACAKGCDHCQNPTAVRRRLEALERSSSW
RECQL5 11-526 D422A, sequence (O94762 11-526 D422A): as the sequence (O94762 11-526 W165A) above, with A155W, D412A counted along it
RECQL5 11-526 Y419A, sequence (O94762 11-526 Y419A): as the sequence (O94762 11-526 W165A) above, with A155W, Y409A counted along it
RECQL5 11-526, sequence (O94762 11-526): as the sequence (O94762 11-526 W165A) above, with A155W counted along it
RECQL5 11-526 R349A, sequence (O94762 11-526 R349A): as the sequence (O94762 11-526 W165A) above, with A155W, R339A counted along it
RECQL5 11-526 Q345A, sequence (O94762 11-526 Q345A): as the sequence (O94762 11-526 W165A) above, with A155W, Q335A counted along it
RECQL5 11-526 D168A, sequence (O94762 11-526 D168A): as the sequence (O94762 11-526 W165A) above, with A155W, D158A counted along it
RECQL5 11-526 R352G, sequence (O94762 11-526 R352G): as the sequence (O94762 11-526 W165A) above, with A155W, R342G counted along it
RECQL5 11-526 F420A, sequence (O94762 11-526 F420A): as the sequence (O94762 11-526 W165A) above, with A155W, F410A counted along it
RECQL5 11-526 H167A, sequence (O94762 11-526 H167A): as the sequence (O94762 11-526 W165A) above, with A155W, H157A counted along it

B1: splayed duplex (RQ-1 + RQ-3) (mixed)
DNA 1: ATCGATAGTCGGATCCTCTAGACAGCTCCATGTAGCAAGGCACTGGTAGAATTCGGCAGCGTC
DNA 2: GACGCTGCCGAATTCTACCAGTGCCTTGCTAGGACATCTTTGCCCACCTGCAGGTTCACCC
**Q.** How did the Kd [1] turn out when B1 was run?
**A.** Its Kd is 169 ± 6 nM.

**Q.** What about the Kd [2] of the same binder?
**A.** Its Kd is 29 ± 2 nM.

**Q.** And the Kd [3]?
**A.** The Kd was 51 ± 5 nM.

**Q.** And the Kd [4]?
**A.** The Kd was 39 ± 10 nM.

**Q.** And the Kd [5]?
**A.** The Kd was 108 ± 5 nM.

**Q.** What about the Kd [6] of the same binder?
**A.** The Kd was 38 ± 4 nM.

**Q.** And the Kd [7]?
**A.** The Kd was 85 ± 4 nM.

**Q.** And the Kd [8]?
**A.** The Kd was 49 ± 28 nM.

**Q.** What about the Kd [9] of the same binder?
**A.** Its Kd is 45 ± 3 nM.

**Q.** What about the Kd [10] of the same binder?
**A.** The Kd was 25 ± 2 nM.

**Q.** And the Kd ([11]; label: 5' fluorescein (FITC) on RQ-1, fork 1:2, 31 bp, RQ-1 5' arm 32 nt, RQ-3 3' arm 30 nt)?
**A.** Its Kd is 29 ± 4 nM.

**Q.** And the Kd [12]?
**A.** Its Kd is 295 ± 29 nM.

**Q.** And the Kd [13]?
**A.** Its Kd is 164 ± 34 nM.

B2: double stranded (RQ-1 + RQ-2) (dsDNA)
DNA 1: ATCGATAGTCGGATCCTCTAGACAGCTCCATGTAGCAAGGCACTGGTAGAATTCGGCAGCGTC
DNA 2: GACGCTGCCGAATTCTACCAGTGCCTTGCTACATGGAGCTGTCTAGAGGATCCGACTATCGAT
**Q.** Does B2 bind ([11]; label: 5' fluorescein (FITC) on RQ-1, blunt)?
**A.** Result: binds

B3: single stranded (RQ-1) (ssDNA)
DNA: ATCGATAGTCGGATCCTCTAGACAGCTCCATGTAGCAAGGCACTGGTAGAATTCGGCAGCGTC
**Q.** Does B3 bind ([11]; label: 5' fluorescein (FITC), single strand)?
**A.** Result: binds
